# Data published in IntAct's records for PubMed 21382479.
# B1: Caveolin-1 (Homo sapiens), Q03135 (parent)
# chain: MSGGKYVDSEGHLYTVPIREQGNIYKPNNKAMADELSEKQVYDAHTKEIDLVNRDPKHLNDDVVKIDFEDVIAEPEGTHSFDGIWKASFTTFTVTKYWFYRLLSALFGIPMALIWGIYFAILSFLHIWAVVPCIKSFLIEIQCISRVYSIYVHTVCDPLFEAVGKIFSNVRINLQKEI
# partner: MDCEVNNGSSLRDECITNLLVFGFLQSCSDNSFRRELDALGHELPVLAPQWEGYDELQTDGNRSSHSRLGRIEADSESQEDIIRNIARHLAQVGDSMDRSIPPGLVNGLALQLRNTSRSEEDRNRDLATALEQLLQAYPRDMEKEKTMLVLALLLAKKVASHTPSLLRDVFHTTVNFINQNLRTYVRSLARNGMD
# Variants of: B1
# Details: with bid_human BID
row,effect of a mutation on the interaction,Variant
1,disrupting interaction,MSGGKYVDSEGHLFTVPIREQGNIYKPNNKAMADELSEKQVYDAHTKEIDLVNRDPKHLNDDVVKIDFEDVIAEPEGTHSFDGIWKASFTTFTVTKYWFYRLLSALFGIPMALIWGIYFAILSFLHIWAVVPCIKSFLIEIQCISRVYSIYVHTVCDPLFEAVGKIFSNVRINLQKEI [Y14F]
